Our source for the reverse-splicing fitness values is the RNAGym collection of RNA variant scans (doi:10.1093/molbev/msab373).

B1: Azoarcus group I ribozyme (parent)
chain: GUGCCUUGCGCCGGGAAACCACGCAAGGGAUGGUGUCAAAUUCGGCGAAACCUAAGCGCCCGCCCGGGCGUAUGGCAACGCCGAGCCAAGCUUCGGCGCCUGCGCCGAUGAAGGUGUAGAGACUAGACGGCACCCACCUAAGGCAAACGCUAUGGUGAAGGCAUAGUCCAGGGAGUGGCGAAAGUCACACAAACCGG

In the data set the parent is B1. As to the kind of experiment: reverse-splicing fitness (ratio to wild type); higher = more active; in vitro selection; Mg2+ level not given. Summed up:
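An in vitro group I ribozyme library with randomized positions was T7-transcribed and gel-purified. In triplicate, 10 pmol RNA in EPPS pH 7.5 was reacted with 50 pmoles of a 30-nt RNA substrate for 1 h at 37 °C across several added MgCl2 levels (1–48 mM), then stopped with EDTA. Products were reverse transcribed from a substrate-complementary primer, PCR-amplified and sequenced (HiSeq 4000). Fitness is a variant's read proportion after selection over that before, normalised to wild type.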
For A111U A120U C150U C169U U176G, the reverse-splicing fitness came to 0.00287.
Next, A111U A120U C150U U176C: 0.171; A111U A120U C150U U176A: 0.125; A111U A120U C150U U176G: 0.027.
With A111U C169G, the reverse-splicing fitness turned out to be 0.0649.
Under A111U C169U stands 0.103.
For A111U C169A, the reverse-splicing fitness amounted to 0.0292.
Under A111U A120U C150U C169U stands 0.0369; under A111U A120U C150U C169G, 0.0274; under A111U A120U C150U C169A, 0.00484.
Next, A111U A145C C150U C169A: 0.0113.
Under A111U A145C C150U C169U stands 0.0312; under A111U A145C C150U C169G, 0.0177.
Consider A111U A120U C150A C169U U176C, for which the reverse-splicing fitness worked out at 0.0045.
Next, A111U A120U C150A C169U U176G: 0.00212.
Next, A111U A120U C150A C169U U176A: 0.00638; A111U A145U C169U: 0.109; A111U A145U C169A: 0.0323.
A111U A145U C169G: the reverse-splicing fitness turned out to be 0.0652.
As for A111U A145U C150A C169G U176C, the reverse-splicing fitness amounted to 0.0169.
Next, A111U A145U C150A C169G U176G: 0.0065.
For A111U A145U C150A C169G U176A, the reverse-splicing fitness is 0.0129.
Under A111U A120U C169A stands 0.00533; under A111U A120U C169G, 0.0555.
As to A111U A120U C169U, the reverse-splicing fitness amounted to 0.0747.
Turning to A111U A145G C150U U176C, the reverse-splicing fitness is 0.692.
Next, A111U A145G C150U U176G: 0.22; A111U A145G C150U U176A: 0.591.
Under A111U C150G C169U U176C stands 0.0145.
For A111U C150G C169U U176A, the reverse-splicing fitness amounted to 0.00776.
Under A111U C150G C169U U176G stands 0.00634; under A111U C150G U176G, 0.0165.
Under A111U C150G U176C stands 0.124; under A111U C150G U176A, 0.0805.
Next, A111U A145U C150A C169U: 0.018; A111U A145U C150A C169G: 0.0109; A111U A145U C150A C169A: 0.01.
For A111U A145C C169U U176G, the reverse-splicing fitness came to 0.0061.
Next, A111U A145C C169U U176A: 0.0252.
Under A111U A145C C169U U176C stands 0.0265; under A111U A145C C150U C169A U176G, 0.00703; under A111U A145C C150U C169A U176C, 0.00769.
Next, A111U A145C C150U C169A U176A: 0.0117.
Consider A111U A145G C150A C169U U176G, for which the reverse-splicing fitness amounted to 0.00686.
Regarding A111U A145G C150A C169U U176C, the reverse-splicing fitness amounted to 0.0191.
Turning to A111U A145G C150A C169U U176A, the reverse-splicing fitness is 0.0173.
Next, A111U A145U C150A U176C: 0.228; A111U A145U C150A U176A: 0.192.
Next, A111U A145U C150A U176G: 0.0853; A111U C150A C169U U176G: 0.00721; A111U C150A C169U U176A: 0.0201.
Under A111U C150A C169U U176C stands 0.0188; under A111U A145G C169G U176G, 0.00535.
For the variant A111U A145G C169G U176C, the reverse-splicing fitness was 0.0358.
Consider A111U A145G C169G U176A, for which the reverse-splicing fitness stood at 0.0249.
Take A111U A145U C150U C169U U176C: the reverse-splicing fitness is 0.0268.
Next, A111U A145U C150U C169U U176A: 0.022.
Turning to A111U A145U C150U C169U U176G, the reverse-splicing fitness is 0.00684.
Next, A111U A145U C150U C169A: 0.0209.
Under A111U A145U C150U C169U stands 0.0705; under A111U A145U C150U C169G, 0.0415; under A111U A145G C150G C169U, 0.0181.
Next, A111U A145G C150G C169A: 0.0104; A111U A145G C150G C169G: 0.011; A111U A145C C150U C169G U176G: 0.00741.
On to A111U A145C C150U C169G U176C, for which the reverse-splicing fitness amounted to 0.0135.
Next, A111U A145C C150U C169G U176A: 0.0212.
A111U C150A C169G: the reverse-splicing fitness stood at 0.0124.
Next, A111U C150A C169A: 0.0111.
Under A111U C150A C169U stands 0.0167; under A111U C150U C169U U176C, 0.0237.
Under A111U C150U C169U U176A stands 0.0262; under A111U C150U C169U U176G, 0.00705; under A111U A145C C150A C169U U176G, 0.00676.
With A111U A145C C150A C169U U176A, the reverse-splicing fitness turned out to be 0.0157.
Under A111U A145C C150A C169U U176C stands 0.0105; under A111U A145U C150A C169U U176G, 0.00626; under A111U A145U C150A C169U U176A, 0.0151.
Next, A111U A145U C150A C169U U176C: 0.0162; A111U A145G C150G C169A U176G: 0.00707.
Consider A111U A145G C150G C169A U176A, for which the reverse-splicing fitness worked out at 0.0118.
Under A111U A145G C150G C169A U176C stands 0.0121; under A111U A145G C150A, 0.516.
In the case of A111U A145G C150U, the reverse-splicing fitness came out at 0.915.
